Test results: doi:10.1101/2024.11.22.624932

Assays:
[1] = target: synthetic nanobody (sybody) Sb44; test: SEC
Sb44 V100C [2] = test: SDS-PAGE under non-reducing and reducing conditions
Sb44 V100C [3] = test: SEC

Binder	stoichiometry N [1]	stoichiometry N (Sb44 V100C [2])	stoichiometry N (Sb44 V100C [3])
synthetic nanobody (sybody) Sb44 (VHH) VHH: QVQLVESGGGLVQAGGSLRLSCAASGFPVGRASMWWYRQAPGKEREWVAAISSYGWVTAYADSVKGRFTISRDNAKNTVYLQMNSLKPEDTAVYYCEVSVGTGYRGQGTQVTVSA	2	–	–
Sb44 V100C (VHH) VHH: QVQLVESGGGLVQAGGSLRLSCAASGFPVGRASMWWYRQAPGKEREWVAAISSYGWVTAYADSVKGRFTISRDNAKNTVYLQMNSLKPEDTAVYYCEVSCGTGYRGQGTQVTVSA	–	2	2
